# B1: yeast prion protein Ure2p (natural protein, UniProt P23202 1-354, looked up)
# chain: MMNNNGNQVSNLSNALRQVNIGNRNSNTTTDQSNINFEFSTGVNNNNNNNSSSNNNNVQNNNSGRNGSQNNDNENNIKNTLEQHRQQQQAFSDMSHVEYSRITKFFQEQPLEGYTLFSHRSAPNGFKVAIVLSELGFHYNTIFLDFNLGEHRAPEFVSVNPNARVPALIDHGMDNLSIWESGAILLHLVNKYYKETGNPLLWSDDLADQSQINAWLFFQTSGHAPMIGQALHFRYFHSQKIASAVERYTDEVRRVYGVVEMALAERREALVMELDTENAAAYSAGTTPMSQSRFFDYPVWLVGDKLTIADLAFVPWNNVVDRIGINIKIEFPEVYKWTKHMMRRPAVIKALRGE
# notes: also called prion Ure2p
# Molecular target: T1, Ssa1 (UniProt P10591 1-642)
# T1 construct: also called a member of the Hsp70 family (Ssa1); Saa1
# Assay: ThT aggregation kinetics, global
# Details: both partners purified
# T1 sequence (P10591 whole entry): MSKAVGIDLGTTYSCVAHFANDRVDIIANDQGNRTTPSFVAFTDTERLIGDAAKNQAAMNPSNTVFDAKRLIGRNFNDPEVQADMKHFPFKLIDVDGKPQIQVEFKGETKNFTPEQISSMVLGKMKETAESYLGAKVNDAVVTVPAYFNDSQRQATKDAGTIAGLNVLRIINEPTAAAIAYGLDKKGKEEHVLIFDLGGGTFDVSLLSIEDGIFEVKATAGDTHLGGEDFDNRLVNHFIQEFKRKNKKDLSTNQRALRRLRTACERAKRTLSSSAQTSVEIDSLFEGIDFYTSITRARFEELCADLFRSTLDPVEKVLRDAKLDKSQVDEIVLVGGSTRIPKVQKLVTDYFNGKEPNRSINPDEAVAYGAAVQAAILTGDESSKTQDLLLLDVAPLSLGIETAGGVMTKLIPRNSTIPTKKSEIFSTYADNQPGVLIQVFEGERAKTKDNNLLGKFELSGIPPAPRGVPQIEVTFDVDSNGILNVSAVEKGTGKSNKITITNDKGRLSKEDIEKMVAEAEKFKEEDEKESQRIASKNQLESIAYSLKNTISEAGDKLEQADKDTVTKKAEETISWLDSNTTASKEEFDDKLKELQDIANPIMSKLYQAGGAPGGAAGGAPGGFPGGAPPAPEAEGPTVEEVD
binder,measurement,value
B1,Ka,300000 M⁻¹

# — paper PMC4820785 (Nature Communications, 2016)
